Blank lines part the entries; values can stand above or below the substance they belong to.
Experiments:
[1] = molecular target: HLA-B*2705 (B27) single antigen on Luminex beads (human); assay: Luminex single antigen, iBeads (#6), IVIg 1:8
[2] = molecular target: HLA-B*2708 (B27) single antigen on Luminex beads (human); assay: Luminex single antigen, iBeads (#6), IVIg 1:8
[3] = molecular target: HLA-B*3501 (B35) single antigen on Luminex beads (human); assay: Luminex single antigen, iBeads (#6), IVIg 1:8
[4] = molecular target: HLA-B*3701 (B37) single antigen on Luminex beads (human); assay: Luminex single antigen, iBeads (#6), IVIg 1:8
[5] = molecular target: HLA-B*3801 (B38) single antigen on Luminex beads (human); assay: Luminex single antigen, iBeads (#6), IVIg 1:8
[6] = molecular target: HLA-B*3901 (B39) single antigen on Luminex beads (human); assay: Luminex single antigen, iBeads (#6), IVIg 1:8
[7] = molecular target: HLA-B*4001 (B60) single antigen on Luminex beads (human); assay: Luminex single antigen, iBeads (#6), IVIg 1:8
[8] = molecular target: HLA-B*4002 (B61) single antigen on Luminex beads (human); assay: Luminex single antigen, iBeads (#6), IVIg 1:8
[9] = molecular target: HLA-B*4006 (B61) single antigen on Luminex beads (human); assay: Luminex single antigen, iBeads (#6), IVIg 1:8
[10] = molecular target: HLA-B*4101 (B41) single antigen on Luminex beads (human); assay: Luminex single antigen, iBeads (#6), IVIg 1:8
[11] = molecular target: HLA-B*4201 (B42) single antigen on Luminex beads (human); assay: Luminex single antigen, iBeads (#6), IVIg 1:8
[12] = molecular target: HLA-B*4402 (B44) single antigen on Luminex beads (human); assay: Luminex single antigen, iBeads (#6), IVIg 1:8
[13] = molecular target: HLA-B*4403 (B44) single antigen on Luminex beads (human); assay: Luminex single antigen, iBeads (#6), IVIg 1:8
[14] = molecular target: HLA-B*4501 (B45) single antigen on Luminex beads (human); assay: Luminex single antigen, iBeads (#6), IVIg 1:8
[15] = molecular target: HLA-B*4601 (B46) single antigen on Luminex beads (human); assay: Luminex single antigen, iBeads (#6), IVIg 1:8
[16] = molecular target: Albumin on negative control beads (serum albumin, HSA/BSA) (human or bovine); assay: Luminex single antigen beads, iBeads (#6), 1:8
[17] = molecular target: HLA-A*0301 (A3) on single antigen beads (human) (UniProt P04439); assay: Luminex single antigen beads, iBeads (#6), 1:8
[18] = molecular target: Albumin on negative control beads (serum albumin, HSA/BSA) (human or bovine); assay: Luminex, iBead MFI against regular bead MFI, 1:8
[19] = molecular target: HLA-A*0301 (A3) on single antigen beads (human) (UniProt P04439); assay: Luminex, iBead MFI against regular bead MFI, 1:8
[20] = molecular target: HLA-B*2708 (B27) single antigen on Luminex beads (human); assay: Luminex single antigen, regular beads (#7), IVIg 1:8
[21] = molecular target: HLA-B*3501 (B35) single antigen on Luminex beads (human); assay: as above
[22] = molecular target: HLA-B*3701 (B37) single antigen on Luminex beads (human); assay: as above
[23] = molecular target: HLA-B*3801 (B38) single antigen on Luminex beads (human); assay: as above
[24] = molecular target: HLA-B*3901 (B39) single antigen on Luminex beads (human); assay: as above
[25] = molecular target: HLA-B*4002 (B61) single antigen on Luminex beads (human); assay: as above
[26] = molecular target: HLA-B*4006 (B61) single antigen on Luminex beads (human); assay: as above
[27] = molecular target: HLA-B*4101 (B41) single antigen on Luminex beads (human); assay: as above
[28] = molecular target: HLA-B*4402 (B44) single antigen on Luminex beads (human); assay: as above
[29] = molecular target: HLA-B*4403 (B44) single antigen on Luminex beads (human); assay: as above
[30] = molecular target: HLA-B*4501 (B45) single antigen on Luminex beads (human); assay: as above
[31] = molecular target: HLA-B*4601 (B46) single antigen on Luminex beads (human); assay: as above
[32] = molecular target: HLA-B*4701 (B47) single antigen on Luminex beads (human); assay: as above
[33] = molecular target: Albumin on negative control beads (serum albumin, HSA/BSA) (human or bovine); assay: Luminex single antigen beads, regular beads (#7), 1:8
[34] = molecular target: HLA-A*0301 (A3) on single antigen beads (human) (UniProt P04439); assay: as above
[35] = molecular target: HLA-B*2705 (B27) single antigen on Luminex beads (human); assay: Luminex single antigen, iBead vs regular bead, IVIg 1:8
[36] = molecular target: HLA-B*2708 (B27) single antigen on Luminex beads (human); assay: as above
[37] = molecular target: HLA-B*3501 (B35) single antigen on Luminex beads (human); assay: as above
[38] = molecular target: HLA-B*3701 (B37) single antigen on Luminex beads (human); assay: as above
[39] = molecular target: HLA-B*3801 (B38) single antigen on Luminex beads (human); assay: as above
[40] = molecular target: HLA-B*3901 (B39) single antigen on Luminex beads (human); assay: as above
[41] = molecular target: HLA-B*4001 (B60) single antigen on Luminex beads (human); assay: as above
[42] = molecular target: HLA-B*4002 (B61) single antigen on Luminex beads (human); assay: as above
[43] = molecular target: HLA-B*4006 (B61) single antigen on Luminex beads (human); assay: as above
[44] = molecular target: HLA-B*4101 (B41) single antigen on Luminex beads (human); assay: as above
[45] = molecular target: HLA-B*4201 (B42) single antigen on Luminex beads (human); assay: as above
[46] = molecular target: HLA-B*4402 (B44) single antigen on Luminex beads (human); assay: as above
[47] = molecular target: HLA-B*4403 (B44) single antigen on Luminex beads (human); assay: as above
[48] = molecular target: HLA-B*4501 (B45) single antigen on Luminex beads (human); assay: as above
[49] = molecular target: HLA-B*4601 (B46) single antigen on Luminex beads (human); assay: as above
[50] = molecular target: HLA-B*4701 (B47) single antigen on Luminex beads (human); assay: as above
HLA-B*3501 (B35) (human) = assay: Luminex single-antigen beads (iBeads), culture supernatant
HLA-B*3701 (B37) (human) = assay: as above
HLA-B*3801 (B38) (human) = assay: as above
HLA-B*3901 (B39) (human) = assay: as above
HLA-B*4001 (B60) (human) = assay: as above
HLA-B*4002 (B61) (human) = assay: as above
HLA-B*4006 (B61) (human) = assay: as above
HLA-B*4101 (B41) (human) = assay: as above
HLA-B*4201 (B42) (human) = assay: as above
HLA-B*4402 (B44) (human) = assay: as above
HLA-B*4403 (B44) (human) = assay: as above
HLA-B*4501 (B45) (human) = assay: as above
HLA-B*4601 (B46) (human) = assay: as above
HLA-B*4701 (B47) (human) = assay: as above
HLA-B*4801 (B48) (human) = assay: as above
HLA-B*4901 (B49) (human) = assay: as above
HLA-B*5001 (B50) (human) = assay: as above
HLA-B*5101 (B51) (human) = assay: as above
[51] = molecular target: HLA-A*0101 (A1) single antigen bead (human); assay: Luminex single antigen bead assay (IBEADS), culture supernatant
[52] = molecular target: HLA-A*0201 (A2) single antigen bead (human); assay: as above
[53] = molecular target: HLA-A*0203 (A2) single antigen bead (human); assay: as above
[54] = molecular target: HLA-A*0206 (A2) single antigen bead (human); assay: as above
[55] = molecular target: HLA-A*0301 (A3) single antigen bead (human); assay: as above
[56] = molecular target: HLA-A*1101 (A11) single antigen bead (human); assay: as above
[57] = molecular target: HLA-A*1102 (A11) single antigen bead (human); assay: as above
[58] = molecular target: HLA-A*2301 (A23) single antigen bead (human); assay: as above
[59] = molecular target: HLA-A*2402 (A24) single antigen bead (human); assay: as above
[60] = molecular target: HLA-A*2403 (A24) single antigen bead (human); assay: as above
[61] = molecular target: HLA-A*2501 (A25) single antigen bead (human); assay: as above
[62] = molecular target: HLA-A*2601 (A26) single antigen bead (human); assay: as above
[63] = molecular target: HLA-A*2901 (A29) single antigen bead (human); assay: as above
[64] = molecular target: HLA-A*2902 (A29) single antigen bead (human); assay: as above
[65] = molecular target: HLA-A*3001 (A30) single antigen bead (human); assay: as above
[66] = molecular target: HLA-A*3002 (A30) single antigen bead (human); assay: as above
[67] = molecular target: Negative control beads coated with serum albumin (HSA/BSA) (human or bovine); assay: as above

MFI [1]: 0 MFI | MFI [2]: 0 MFI | MFI [3]: 577 MFI | MFI [4]: 612 MFI | MFI [5]: 0 MFI | MFI [6]: 0 MFI | MFI [7]: 93 MFI | MFI [8]: 0 MFI | MFI [9]: 421 MFI | MFI [10]: 0 MFI | MFI [11]: 0 MFI | MFI [12]: 786 MFI | MFI [13]: 836 MFI | MFI [14]: 399 MFI | MFI [15]: 851 MFI | MFI [16]: 7800 MFI | MFI [17]: -211 MFI | Difference % (iBead against regular bead) [18]: -24% | Difference % (iBead against regular bead) [19]: -151% | MFI [20]: 0 MFI | MFI [21]: 1480 MFI | MFI [22]: 4790 MFI | MFI [23]: 1260 MFI | MFI [24]: 0 MFI | MFI [25]: 0 MFI | MFI [26]: 4340 MFI | MFI [27]: 605 MFI | MFI [28]: 5310 MFI | MFI [29]: 1210 MFI | MFI [30]: 562 MFI | MFI [31]: 2450 MFI | MFI [32]: 2030 MFI | MFI [33]: 10300 MFI | MFI [34]: 410 MFI | Difference % (iBead against regular bead MFI) [35]: -100% | Difference % (iBead against regular bead MFI) [36]: 0% | Difference % (iBead against regular bead MFI) [37]: -61% | Difference % (iBead against regular bead MFI) [38]: -87% | Difference % (iBead against regular bead MFI) [39]: -100% | Difference % (iBead against regular bead MFI) [40]: 0% | Difference % (iBead against regular bead MFI) [41]: -93% | Difference % (iBead against regular bead MFI) [42]: 0% | Difference % (iBead against regular bead MFI) [43]: -90% | Difference % (iBead against regular bead MFI) [44]: -100% | Difference % (iBead against regular bead MFI) [45]: -100% | Difference % (iBead against regular bead MFI) [46]: -85% | Difference % (iBead against regular bead MFI) [47]: -31% | Difference % (iBead against regular bead MFI) [48]: -29% | Difference % (iBead against regular bead MFI) [49]: -65% | Difference % (iBead against regular bead MFI) [50]: -39%
Substance: Gamunex-C Lot NKLK1 (IVIg) (antibody)

MFI (HLA-B*3501 (B35) (human)): 60 MFI | MFI (HLA-B*3701 (B37) (human)): 43 MFI | MFI (HLA-B*3801 (B38) (human)): 24 MFI | MFI (HLA-B*3901 (B39) (human)): 21 MFI | MFI (HLA-B*4001 (B60) (human)): 28 MFI | MFI (HLA-B*4002 (B61) (human)): 33 MFI | MFI (HLA-B*4006 (B61) (human)): 41 MFI | MFI (HLA-B*4101 (B41) (human)): 89 MFI | MFI (HLA-B*4201 (B42) (human)): 32 MFI | MFI (HLA-B*4402 (B44) (human)): 32 MFI | MFI (HLA-B*4403 (B44) (human)): 18 MFI | MFI (HLA-B*4501 (B45) (human)): 18 MFI | MFI (HLA-B*4601 (B46) (human)): 23 MFI | MFI (HLA-B*4701 (B47) (human)): 38 MFI | MFI (HLA-B*4801 (B48) (human)): 21 MFI | MFI (HLA-B*4901 (B49) (human)): 71 MFI | MFI (HLA-B*5001 (B50) (human)): 67 MFI | MFI (HLA-B*5101 (B51) (human)): 45 MFI | MFI [51]: 28 MFI | MFI [52]: 31 MFI | MFI [53]: 31 MFI | MFI [54]: 27 MFI | MFI [55]: 36 MFI | MFI [56]: 51 MFI | MFI [57]: 60 MFI | MFI [58]: 36 MFI | MFI [59]: 42 MFI | MFI [60]: 53 MFI | MFI [61]: 24 MFI | MFI [62]: 57 MFI | MFI [63]: 115 MFI | MFI [64]: 23 MFI | MFI [65]: 45 MFI | MFI [66]: 69 MFI | MFI [67]: 6 MFI
Substance: TFL Anti-HLA-E Mab PTG-006 (antibody)

Reference: US10800847
